Earlier results, collected in paper PMC2709459 (Biochimica et biophysica acta, 2008).

Molecular target: C5aR
Settings: C5aR in transfected CHO cells

B1: C5a: complement C5a fragment, anaphylatoxin ligand of C5aR (protein, UniProt P01031 678-751, looked up)
C5a anaphylatoxin: TLQKKIEEIAAKYKHSVVKKCCYDGACVNNDETCEQRAARISLGPRCIKAFTECCVVASQLRANISHKDMQLGR
modifications: C5a anaphylatoxin
Q: With B1 as the molecule, how does the Kd read?
A: 0.01 µM
